Legend:
[1] = biological target: T1, recombinant human CD137 extracellular domain (human, UniProt Q07011 24-186); test: SPR, Biacore T200, bispecific captured by anti-human IgG, monomeric ECD injected, 1:1 model
T1 construct: The entry starts at Met 1; also called Hu CD137; 4-1BB ECD
Experimental: (§1) Goat anti-human IgG F(ab′)2 fragment (Jackson ImmunoResearch) at 20 μg/mL in 10 mM sodium acetate (pH 4.5) was immobilized at a density of 2000 response units (RU) onto the flow cell of a CM5 research-grade sensor chip (GE) by standard amine coupling chemistry. Each bispecific variant at 200 nM in HBS-EP+ buffer was captured in the flow cell with the immobilized anti-human IgG at a flow rate of 50 μL/min for 60 sec to reach ˜500 RU response, leaving one flow cell surface unmodified as the reference. Following a 30 sec stabilization period, four different concentrations of each ECD (0, 20, 60, and 180 nM) were injected at 50 μL/min for either 120 sec followed by a 240 sec dissociation period (for 5T4) or 90 sec followed by a 180 sec dissociation period (for 4-1BB). Regeneration was achieved by duplicate injections of 10 mM glycine (pH 1.5) at a flow rate of 50 μL/min for 30 sec followed by HBS-EP+ buffer stabilization for 1 min.
(§2) Sensorgrams obtained from kinetic SPR measurements were analyzed by the double subtraction method. The signal from the reference flow cell was subtracted from the analyte binding response obtained from flow cells with immobilized or captured ligands. Buffer reference responses were then averaged from multiple injections. The averaged buffer reference responses were then subtracted from analyte binding responses, and the final double-referenced data were analyzed with Biacore T200 Evaluation software (2.0, GE), globally fitting data to derive kinetic parameters. All sensorgrams were fitted using a simple one-to-one binding model.

[2] = biological target: T2, recombinant human 5T4 extracellular domain (human, UniProt Q13641 32-355); test: as above
T2 construct: The entry starts at Met 1; also called Hu 5T4; 5T4 ECD
T2 sequence: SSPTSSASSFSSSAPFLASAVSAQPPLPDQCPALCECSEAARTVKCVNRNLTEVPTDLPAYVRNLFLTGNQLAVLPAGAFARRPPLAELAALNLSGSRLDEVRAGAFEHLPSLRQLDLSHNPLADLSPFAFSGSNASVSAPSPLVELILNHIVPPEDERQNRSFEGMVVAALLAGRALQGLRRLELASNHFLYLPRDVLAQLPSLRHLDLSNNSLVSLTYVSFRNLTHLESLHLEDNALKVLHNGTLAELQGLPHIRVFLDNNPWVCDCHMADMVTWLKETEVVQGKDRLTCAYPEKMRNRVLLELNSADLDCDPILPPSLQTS
Experimental: as §1, §2

cynomolgus 5T4 on cells [3] = biological target: T3, cynomolgus 5T4 on cells (cynomolgus macaque, UniProt Q4R8Y9 35-420); test: flow cytometry, CHO-K1/cynomolgus 5T4 transfectants (FIG. 7)
T3 construct: whole, on cells; also called CHO-K1/cynomolgus 5T4
T3 sequence (looked up): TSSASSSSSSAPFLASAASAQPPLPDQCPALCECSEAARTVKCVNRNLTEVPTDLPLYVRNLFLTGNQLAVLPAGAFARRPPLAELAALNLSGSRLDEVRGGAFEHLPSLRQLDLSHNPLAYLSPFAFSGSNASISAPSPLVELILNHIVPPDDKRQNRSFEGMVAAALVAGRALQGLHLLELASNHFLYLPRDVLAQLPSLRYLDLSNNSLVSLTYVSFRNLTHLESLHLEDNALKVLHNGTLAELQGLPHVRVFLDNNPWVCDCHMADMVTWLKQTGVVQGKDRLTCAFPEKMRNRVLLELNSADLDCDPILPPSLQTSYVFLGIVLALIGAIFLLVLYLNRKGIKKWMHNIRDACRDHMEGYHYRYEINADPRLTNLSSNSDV
Experimental: (§3) Binding studies were performed by standard flow cytometry-based staining procedures two cell lines expressing 5T4:CHO-K1 cells (obtained from Alligator) transduced with human or cynomolgus macaque 5T4 and SKOV-3 human ovarian adenocarcinoma cells which express (human) 5T4. All labeling and washes were performed in U-bottom 96-well plates in saline buffer with 0.1% BSA and 2 mM EDTA. Cell were plated at approximately 100,000 cells per well and incubated with a range of 100 nM to 0.05 nM concentrations of test molecules in 50 μL volume/well, for 30 minutes on ice. Cells were washed three times then incubated for another 30 min on ice with fluorescently-labeled secondary polyclonal antibody, F(ab′)² goat anti-human IgG (Jackson ImmunoResearch Laboratories). The cells were then washed twice and the samples acquired in a BD LSRII or a Symphony A3 flow cytometer. The sample files were analyzed using FlowJo software; the mean fluorescence intensity (MFI-mean) or median fluorescence intensity (MFI-median) of the live population of cells in each well was calculated after gating on live cells (forward vs side scatter). Nonlinear regression analysis to determine EC₅₀ values was performed in GraphPad Prism 6® graphing and statistics software.

human 5T4 on cells = biological target: T4, human 5T4 on cells (human, UniProt Q13641 32-420); test: flow cytometry, SKOV-3 cells (FIG. 6)
T4 construct: Human 5T4 on transfected cells (CHO-K1, CT26, B16) or endogenous on human tumour lines; the cell line is named under assay; also called trophoblast glycoprotein; TPBG
T4 sequence: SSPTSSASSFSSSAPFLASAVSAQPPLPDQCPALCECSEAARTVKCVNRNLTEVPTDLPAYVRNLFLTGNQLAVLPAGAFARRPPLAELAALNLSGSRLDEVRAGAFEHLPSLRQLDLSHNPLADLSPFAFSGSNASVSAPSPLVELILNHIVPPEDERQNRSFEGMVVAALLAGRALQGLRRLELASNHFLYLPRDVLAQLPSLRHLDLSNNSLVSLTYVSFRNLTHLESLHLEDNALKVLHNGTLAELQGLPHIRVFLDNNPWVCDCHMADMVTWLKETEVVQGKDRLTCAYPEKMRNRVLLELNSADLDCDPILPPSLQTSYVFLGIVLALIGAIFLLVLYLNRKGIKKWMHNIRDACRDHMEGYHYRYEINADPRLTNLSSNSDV
Experimental: as §3
The differences in EC₅₀ values between constructs were more evident when binding assays were conducted on SKOV-3 cells. […]

[4] = biological target: T5, CD137 / 4-1BB (soluble antigen, form not stated) (UniProt Q07011 24-186, limits assumed); test: ELISA
T5 construct: also called biotinylated 4-1BB antigen; CD137 in ELISA

cynomolgus 5T4 on cells [5] = biological target: T3, cynomolgus 5T4 on cells; test: flow cytometry, CHO-K1/cynomolgus 5T4 transfectants (FIG. 14)
Experimental: as §3
All the constructs bound with EC₅₀ values in the range of 1 to 3 nM. […]

Kd [1] | koff [1] | kon [1] | Kd [2] | koff [2] | kon [2] | binding result (cynomolgus 5T4 on cells [3]) | binding result (human 5T4 on cells) | EC50 [4] | binding result (cynomolgus 5T4 on cells [5]) | Binder
73 nM | 0.027 s⁻¹ | 370000 M⁻¹ s⁻¹ | 35 nM | 0.00072 s⁻¹ | 21000 M⁻¹ s⁻¹ | binds |  |  |  | ALG.APV-187 (bispecific antibody, scFv-Fc-scFv (ADAPTIR) homodimer with stabilizing disulfide in the 1210 scFv) EVQLLESGGGLVQPGGSLRLSCAASGFTFSHGSMYWVRQAPGKGLEWVSSISSGSGSTYYADSVKGRFTISHDNSKNTLYLQMNSLRAEDTAVYYCARSSYYGSYYSIDYWGQGTLVTVSSGGGGSGGGGSGGGGSGGGGSDIQMTQSPSSLSASVGDRVTITCRASQSISSYLNWYQQKPGKAPKLLIYAASSLQSGVPSRFSGSGSGTDFTLTISSLQPEDFATYYCQQYYDNLPTFGQGTKLEIKSSEPKSSDKTHTCPPCPAPEAAGAPSVFLFPPKPKDTLMISRTPEVTCVVVDVSHEDPEVKFNWYVDGVEVHNAKTKPREEQYNSTYRVVSVLTVLHQDWLNGKEYKCAVSNKALPAPIEKTISKAKGQPREPQVYTLPPSRDELTKNQVSLTCLVKGFYPSDIAVEWESNGQPENNYKTTPPVLDSDGSFFLYSKLTVDKSRWQQGNVFSCSVMHEALHNHYTQKSLSLSPGSGGGGSGGGGSGGGGSPSEVQLLESGGGLVQPGGSLRLSCAASGFTFSSYAMSWVRQAPGKCLEWVSAISGSGGSTYYADSVKGRFTISRDNSKNTLYLQMNSLRAEDTAVYYCARYYGGYYSAWMDYWGQGTLVTVSSGGGGSGGGGSGGGGSGGGGSDIQMTQSPSSLSASVGDRVTITCRASQSISSFLNWYQQKPGKAPKLLIYAASSLQSGVPSRFSGSGSGTDFTLTISSLQPEDSATYYCQQTYGYLHTFGCGTKLEIKR
 |  |  |  |  |  | binds | binds |  |  | ALG.APV-196 (bispecific antibody, scFv-Fc-scFv (ADAPTIR) homodimer) EVQLLESGGGLVQPGGSLRLSCAASGFTFSYGSMYWVRQAPGKGLEWVSSISSGSGSTYYADSVKGRFTISHDNSKNTLYLQMNSLRAEDTAVYYCARSSYYGSYYSIDYWGQGTLVTVSSGGGGSGGGGSGGGGSGGGGSDIQMTQSPSSLSASVGDRVTITCRASQSISSYLNWYQQKPGKAPKLLIYAASSLQSGVPSRFSGSGSGTDFTLTISSLQPEDFATYYCQQYYDNLPTFGQGTKLEIKSSEPKSSDKTHTCPPCPAPEAAGAPSVFLFPPKPKDTLMISRTPEVTCVVVDVSHEDPEVKFNWYVDGVEVHNAKTKPREEQYNSTYRVVSVLTVLHQDWLNGKEYKCAVSNKALPAPIEKTISKAKGQPREPQVYTLPPSRDELTKNQVSLTCLVKGFYPSDIAVEWESNGQPENNYKTTPPVLDSDGSFFLYSKLTVDKSRWQQGNVFSCSVMHEALHNHYTQKSLSLSPGSGGGGSGGGGSGGGGSPSEVQLLESGGGLVQPGGSLRLSCAASGFDFESYAMSWVRQAPGKCLEWVSAISGSGGSTYYADSVKGRFTISRDNSKNTLYLQMNSLRAEDTAVYYCARYYGGYYSAWMDYWGQGTLVTVSSGGGGSGGGGSGGGGSGGGGSDIQMTQSPSSLSASVGDRVTITCRASQSIRSALNWYQQKPGKAPKLLIYAASSLQSGVPSRFSGSGSGTDFTLTISSLQPEDFATYYCQQTYGYLHTFGCGTKLEIKR
 |  |  |  |  |  | binds | binds |  |  | ALG.APV-198 (bispecific antibody, scFv-Fc-scFv (ADAPTIR) homodimer) EVQLLESGGGLVQPGGSLRLSCAASGFTFSHGSMYWVRQAPGKGLEWVSSISSGSGSTYYADSVKGRFTISHDNSKNTLYLQMNSLRAEDTAVYYCARSSYYGSYYSIDYWGQGTLVTVSSGGGGSGGGGSGGGGSGGGGSDIQMTQSPSSLSASVGDRVTITCRASQSISSYLNWYQQKPGKAPKLLIYAASSLQSGVPSRFSGSGSGTDFTLTISSLQPEDFATYYCQQYYDNLPTFGQGTKLEIKSSEPKSSDKTHTCPPCPAPEAAGAPSVFLFPPKPKDTLMISRTPEVTCVVVDVSHEDPEVKFNWYVDGVEVHNAKTKPREEQYNSTYRVVSVLTVLHQDWLNGKEYKCAVSNKALPAPIEKTISKAKGQPREPQVYTLPPSRDELTKNQVSLTCLVKGFYPSDIAVEWESNGQPENNYKTTPPVLDSDGSFFLYSKLTVDKSRWQQGNVFSCSVMHEALHNHYTQKSLSLSPGSGGGGSGGGGSGGGGSPSEVQLLESGGGLVQPGGSLRLSCAASGFDFESYAMSWVRQAPGKCLEWVSAISGSGGSTYYADSVKGRFTISRDNSKNTLYLQMNSLRAEDTAVYYCARYYGGYYSAWMDYWGQGTLVTVSSGGGGSGGGGSGGGGSGGGGSDIQMTQSPSSLSASVGDRVTITCRASQSIRSALNWYQQKPGKAPKLLIYAASSLQSGVPSRFSGSGSGTDFTLTISSLQPEDFATYYCQQTYGYLHTFGCGTKLEIKR
59 nM | 0.033 s⁻¹ | 550000 M⁻¹ s⁻¹ | 79 nM | 0.0012 s⁻¹ | 15000 M⁻¹ s⁻¹ |  |  | 0.7 nM | binds | ALG.APV-210 (bispecific antibody, scFv-Fc-scFv (ADAPTIR) homodimer with stabilizing disulfide in the 1210 scFv; also called ALG.APV-223; 5T4-CD137 bispecific antibody) EVQLLESGGGLVQPGGSLRLSCAASGFTFSHGSMYWVRQAPGKGLEWVSSISSGSGSTYYADSVKGRFTISHDNSKNTLYLQMNSLRAEDTAVYYCARSSYYGSYYSIDYWGQGTLVTVSSGGGGSGGGGSGGGGSGGGGSDIQMTQSPSSLSASVGDRVTITCRASQSISSYLNWYQQKPGKAPKLLIYAASSLQSGVPSRFSGSGSGTDFTLTISSLQPEDFATYYCQQYYDNLPTFGQGTKLEIKEPKSSDKTHTCPPCPAPEAAGAPSVFLFPPKPKDTLMISRTPEVTCVVVDVSHEDPEVKFNWYVDGVEVHNAKTKPREEQYNSTYRVVSVLTVLHQDWLNGKEYKCAVSNKALPAPIEKTISKAKGQPREPQVYTLPPSRDELTKNQVSLTCLVKGFYPSDIAVEWESNGQPENNYKTTPPVLDSDGSFFLYSKLTVDKSRWQQGNVFSCSVMHEALHNHYTQKSLSLSPGSGGGGSGGGGSGGGGSPSEVQLLESGGGLVQPGGSLRLSCAASGFTFSSYAMSWVRQAPGKCLEWVSAISGSGGSTYYADSVKGRFTISRDNSKNTLYLQMNSLRAEDTAVYYCARYYGGYYSAWMDYWGQGTLVTVSSGGGGSGGGGSGGGGSGGGGSDIQMTQSPSSLSASVGDRVTITCRASQSISSFLNWYQQKPGKAPKLLIYAASSLQSGVPSRFSGSGSGTDFTLTISSLQPEDSATYYCQQTYGYLHTFGCGTKLEIKR
